The results in this text go back to patent publication US20160333061A1.

What all share (test): cell-based or functional assay
One experiment has as its target CytERM-mTagBFP.
Experiment [1] concerns the target CytERM-EBFP2 (Aequorea victoria (Water jellyfish) (Mesonema victoria)) [GFP: P42212].
Experiment [2] addresses CytERM-moxBFP (Aequorea victoria (Water jellyfish) (Mesonema victoria)) [GFP: P42212].

CytERM-mTagBFP had a % Cells with OSER Structures (n = cells) in the experiment with CytERM-mTagBFP of 43.5%.

With “CytERM-EBFP2 (from UniProt P42212 2-238)”, the % Cells with OSER Structures (n = cells) in experiment [1] amounted to 63.7%.

The substance “CytERM-moxBFP (from UniProt P42212 2-238)” showed a % Cells with OSER Structures (n = cells) in experiment [2] of 0.9%.
